Experimental findings from paper PMC7397735 (NAR Cancer, 2020) are described below.

The target in this test is POLQ-FLAG (DNA polymerase θ) (human, UniProt O75417 1-2590). The test is described as follows: co-IP.
POLQ-FLAG (DNA polymerase θ), sequence (O75417 whole entry): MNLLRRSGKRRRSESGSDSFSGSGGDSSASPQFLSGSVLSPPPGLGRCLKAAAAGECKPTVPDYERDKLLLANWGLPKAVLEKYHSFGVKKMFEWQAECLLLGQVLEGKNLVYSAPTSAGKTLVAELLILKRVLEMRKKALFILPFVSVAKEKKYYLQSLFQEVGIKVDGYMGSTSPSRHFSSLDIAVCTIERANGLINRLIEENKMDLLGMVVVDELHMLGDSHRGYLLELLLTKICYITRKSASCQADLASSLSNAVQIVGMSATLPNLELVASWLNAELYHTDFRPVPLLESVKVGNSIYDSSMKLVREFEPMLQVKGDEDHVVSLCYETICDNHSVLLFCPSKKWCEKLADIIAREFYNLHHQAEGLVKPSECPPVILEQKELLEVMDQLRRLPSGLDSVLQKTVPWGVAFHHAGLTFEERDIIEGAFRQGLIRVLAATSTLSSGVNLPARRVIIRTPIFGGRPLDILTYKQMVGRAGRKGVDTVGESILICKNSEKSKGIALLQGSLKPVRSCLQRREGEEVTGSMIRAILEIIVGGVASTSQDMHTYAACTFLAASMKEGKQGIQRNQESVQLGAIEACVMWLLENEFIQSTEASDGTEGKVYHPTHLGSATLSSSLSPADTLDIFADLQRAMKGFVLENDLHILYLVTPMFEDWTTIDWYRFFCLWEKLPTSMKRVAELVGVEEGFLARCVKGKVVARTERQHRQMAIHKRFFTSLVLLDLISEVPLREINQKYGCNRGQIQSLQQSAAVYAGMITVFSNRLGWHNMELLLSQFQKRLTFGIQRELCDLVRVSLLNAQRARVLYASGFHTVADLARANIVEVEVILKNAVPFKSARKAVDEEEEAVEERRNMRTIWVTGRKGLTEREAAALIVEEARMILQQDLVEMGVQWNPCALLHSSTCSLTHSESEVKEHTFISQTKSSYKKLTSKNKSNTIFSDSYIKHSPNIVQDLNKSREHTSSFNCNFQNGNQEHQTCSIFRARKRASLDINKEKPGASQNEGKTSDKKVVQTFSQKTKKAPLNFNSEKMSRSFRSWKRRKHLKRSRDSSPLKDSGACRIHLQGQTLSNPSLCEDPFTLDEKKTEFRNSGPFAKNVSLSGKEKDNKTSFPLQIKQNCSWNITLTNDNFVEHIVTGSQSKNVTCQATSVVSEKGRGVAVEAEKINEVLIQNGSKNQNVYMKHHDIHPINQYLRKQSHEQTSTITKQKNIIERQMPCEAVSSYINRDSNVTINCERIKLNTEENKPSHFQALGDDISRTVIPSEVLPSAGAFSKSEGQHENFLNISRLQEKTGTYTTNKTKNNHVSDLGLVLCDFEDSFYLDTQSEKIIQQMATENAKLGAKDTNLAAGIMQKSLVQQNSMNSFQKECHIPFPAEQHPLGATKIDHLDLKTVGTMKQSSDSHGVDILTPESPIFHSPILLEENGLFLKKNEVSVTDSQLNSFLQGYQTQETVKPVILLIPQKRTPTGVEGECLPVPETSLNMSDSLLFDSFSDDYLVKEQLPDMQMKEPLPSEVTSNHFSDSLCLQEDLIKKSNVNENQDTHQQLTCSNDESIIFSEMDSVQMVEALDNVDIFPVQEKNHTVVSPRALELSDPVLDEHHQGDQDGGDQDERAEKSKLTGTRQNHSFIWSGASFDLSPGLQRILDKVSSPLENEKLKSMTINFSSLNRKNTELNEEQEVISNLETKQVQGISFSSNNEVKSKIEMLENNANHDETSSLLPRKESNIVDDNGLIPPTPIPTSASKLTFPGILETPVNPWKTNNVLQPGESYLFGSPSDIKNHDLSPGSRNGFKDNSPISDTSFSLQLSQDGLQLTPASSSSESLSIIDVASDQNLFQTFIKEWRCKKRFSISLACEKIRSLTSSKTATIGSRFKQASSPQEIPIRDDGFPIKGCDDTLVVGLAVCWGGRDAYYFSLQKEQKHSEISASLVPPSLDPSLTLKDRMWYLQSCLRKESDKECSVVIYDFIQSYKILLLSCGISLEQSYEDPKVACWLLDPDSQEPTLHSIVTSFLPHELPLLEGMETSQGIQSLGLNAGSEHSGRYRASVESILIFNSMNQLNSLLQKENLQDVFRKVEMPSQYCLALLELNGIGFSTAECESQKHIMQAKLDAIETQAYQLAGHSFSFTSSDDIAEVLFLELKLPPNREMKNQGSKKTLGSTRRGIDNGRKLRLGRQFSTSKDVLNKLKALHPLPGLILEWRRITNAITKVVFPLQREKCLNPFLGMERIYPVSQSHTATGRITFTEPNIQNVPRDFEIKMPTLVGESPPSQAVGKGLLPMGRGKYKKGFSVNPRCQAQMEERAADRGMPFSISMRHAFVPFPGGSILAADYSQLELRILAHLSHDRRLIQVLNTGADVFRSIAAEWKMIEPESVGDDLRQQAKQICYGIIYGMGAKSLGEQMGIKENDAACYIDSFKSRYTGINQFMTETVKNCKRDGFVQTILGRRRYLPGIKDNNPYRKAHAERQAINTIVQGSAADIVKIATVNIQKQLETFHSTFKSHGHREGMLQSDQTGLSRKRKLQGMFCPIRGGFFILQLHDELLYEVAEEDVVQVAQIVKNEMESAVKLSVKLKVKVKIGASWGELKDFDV

B1: MRE11 (natural protein, human (endogenous in U2OS), UniProt P49959 1-708, looked up)
chain: MSTADALDDENTFKILVATDIHLGFMEKDAVRGNDTFVTLDEILRLAQENEVDFILLGGDLFHENKPSRKTLHTCLELLRKYCMGDRPVQFEILSDQSVNFGFSKFPWVNYQDGNLNISIPVFSIHGNHDDPTGADALCALDILSCAGFVNHFGRSMSVEKIDISPVLLQKGSTKIALYGLGSIPDERLYRMFVNKKVTMLRPKEDENSWFNLFVIHQNRSKHGSTNFIPEQFLDDFIDLVIWGHEHECKIAPTKNEQQLFYISQPGSSVVTSLSPGEAVKKHVGLLRIKGRKMNMHKIPLHTVRQFFMEDIVLANHPDIFNPDNPKVTQAIQSFCLEKIEEMLENAERERLGNSHQPEKPLVRLRVDYSGGFEPFSVLRFSQKFVDRVANPKDIIHFFRHREQKEKTGEEINFGKLITKPSEGTTLRVEDLVKQYFQTAEKNVQLSLLTERGMGEAVQEFVDKEEKDAIEELVKYQLEKTQRFLKERHIDALEDKIDEEVRRFRETRQKNTNEEDDEVREAMTRARALRSQSEESASAFSADDLMSIDLAEQMANDSDDSISAATNKGRGRGRGRRGGRGQNSASRGGSQRGRADTGLETSTRSRNSKTAVSASRNMSIIDAFKSTRQQPSRNVTTKNYSEVIEVDESDVEEDIFPTTSKTDQRWSSTSSSKIMSQSQVSKGVDFESSEDDDDDPFMNTSSLRRNRR
Take B1: the “fold level in POLQ-FLAG IP, BRCA2-deficient over BRCA2-proficient cells” value is ~4 fold.
